PMC11880322

biological target: ∆14-PrfaH (IncX3 plasmid pHNYX644 …, UniProt A0A0C5EQ24 1-155); experiment: EMSA

| Binder | binding result |
| --- | --- |
| TCTGATTCGGGGTCATCCGAGTCGAGAAAACGCCTG (ssDNA) [ss-W10] | binds |
| TCTAAATCGGGGTCATCCGAGTCGAGAGAGCGCCTG (ssDNA) [ss-W2] | binds |
| AAAGATTCGGGGTCATCCGAGTCGAGAGAGCGCCTG (ssDNA) [ss-W1] | binds |
| TCTGATTCGGGGTCATCCGAGTCGAAAGAGCGCCTG (ssDNA) [ss-W9] | binds |
| TCTGATTCGGGGTCATCCGAGTCGAGAGAGCGCAAA (ssDNA) [ss-W12] | binds |
| TCTGATTCGGGGTCATCCGAGTCGAGAGAGAAACTG (ssDNA) [ss-W11] | binds |
